Assay results: patent US20190324032A1 (University of California, published 2019)
Each block holds one binder with its values, some of them ahead of it.

Assays:
[1] = target: T1, His6-tagged mouse CRY1 PHR (photolyase homology region, amino acids 1-491) (mouse, UniProt P97784 1-491); assay: SEC of CRY1 PHR with preformed CLOCK:BMAL1 PAS-B dimer
T1 construct: Expressed in Sf9 cells; also called wild-type CRY1 PHR; not shown: N-terminal His6 tag / vector residues
T1 sequence: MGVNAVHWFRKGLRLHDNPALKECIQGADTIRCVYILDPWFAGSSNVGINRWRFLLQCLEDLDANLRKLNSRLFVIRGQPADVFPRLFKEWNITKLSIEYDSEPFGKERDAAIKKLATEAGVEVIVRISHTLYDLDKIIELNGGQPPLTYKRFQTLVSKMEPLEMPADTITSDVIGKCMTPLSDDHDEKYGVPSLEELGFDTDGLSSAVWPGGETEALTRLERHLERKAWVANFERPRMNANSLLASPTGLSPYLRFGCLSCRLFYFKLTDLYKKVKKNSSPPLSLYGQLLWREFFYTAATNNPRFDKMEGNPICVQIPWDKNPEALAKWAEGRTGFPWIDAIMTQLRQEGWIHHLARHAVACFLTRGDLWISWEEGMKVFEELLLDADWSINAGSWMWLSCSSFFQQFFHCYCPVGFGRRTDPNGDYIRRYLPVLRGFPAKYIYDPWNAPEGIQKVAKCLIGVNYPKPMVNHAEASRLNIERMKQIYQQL
Method: (§1) For analysis of complex formation by size-exclusion chromatography (SEC), purified proteins were injected on a Superdex 200 10/300 GL or Superdex 75 10/300 GL analytical column at 10-50 μM (˜250 μL, 1:1 molar ratio) in 20 mM HEPES pH 7.5, 125 mM NaCl, 5% glycerol and 2 mM TCEP. Proteins were incubated for ˜30 min. or overnight and analyzed by SEC. All size-exclusion columns were calibrated with a low-molecular-weight gel filtration standards kit (GE Healthcare Life Sciences). The content of each peak was evaluated by SDS-PAGE and Coomassie staining.

[2] = target: T2, CRY1 PHR R109Q (mouse, UniProt P97784 1-491); assay: size exclusion chromatography
T2 construct: also called CRY1 PHR R109Q mutant; not shown: N-terminal His6 tag / vector residues
T2 sequence: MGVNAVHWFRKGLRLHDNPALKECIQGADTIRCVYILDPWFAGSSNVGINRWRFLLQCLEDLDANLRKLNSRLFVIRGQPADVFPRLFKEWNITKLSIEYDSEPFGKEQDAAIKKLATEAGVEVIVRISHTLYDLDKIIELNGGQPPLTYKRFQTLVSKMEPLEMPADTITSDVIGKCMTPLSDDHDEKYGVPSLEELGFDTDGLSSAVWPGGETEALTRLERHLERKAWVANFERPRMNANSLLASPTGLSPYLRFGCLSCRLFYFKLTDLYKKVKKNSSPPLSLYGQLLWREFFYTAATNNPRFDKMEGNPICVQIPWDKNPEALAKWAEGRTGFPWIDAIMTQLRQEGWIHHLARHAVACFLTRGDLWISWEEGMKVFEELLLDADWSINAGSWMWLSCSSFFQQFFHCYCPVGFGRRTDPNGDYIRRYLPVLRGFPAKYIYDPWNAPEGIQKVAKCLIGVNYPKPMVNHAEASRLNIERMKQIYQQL
Method: as §1

[3] = target: T3, CRY1 PHR P39A (mouse, UniProt P97784 1-491); assay: size exclusion chromatography
T3 construct: also called CRY1 PHR P39A mutant; not shown: N-terminal His6 tag / vector residues
T3 sequence: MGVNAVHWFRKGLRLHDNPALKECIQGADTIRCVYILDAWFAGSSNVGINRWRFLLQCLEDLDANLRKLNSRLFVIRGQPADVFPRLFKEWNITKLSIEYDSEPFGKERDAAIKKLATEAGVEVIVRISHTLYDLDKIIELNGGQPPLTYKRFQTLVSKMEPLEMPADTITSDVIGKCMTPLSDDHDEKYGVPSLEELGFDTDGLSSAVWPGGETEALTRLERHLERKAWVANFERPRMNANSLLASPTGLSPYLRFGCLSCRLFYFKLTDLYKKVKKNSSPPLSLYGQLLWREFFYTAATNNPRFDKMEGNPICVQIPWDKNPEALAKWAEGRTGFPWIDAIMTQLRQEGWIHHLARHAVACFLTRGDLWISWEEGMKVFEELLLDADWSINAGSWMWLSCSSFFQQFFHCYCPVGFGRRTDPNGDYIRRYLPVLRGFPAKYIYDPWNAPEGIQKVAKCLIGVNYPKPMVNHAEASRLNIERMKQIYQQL
Method: as §1

[4] = target: T1, His6-tagged mouse CRY1 PHR (photolyase …); assay: size exclusion chromatography
Method: as §1

[5] = target: mouse BMAL1 PAS-B (residues 329-441) (mouse, UniProt Q9WTL8 329-441); assay: size exclusion chromatography on Superdex 75
mouse BMAL1 PAS-B (residues 329-441), sequence (Q9WTL8 329-441): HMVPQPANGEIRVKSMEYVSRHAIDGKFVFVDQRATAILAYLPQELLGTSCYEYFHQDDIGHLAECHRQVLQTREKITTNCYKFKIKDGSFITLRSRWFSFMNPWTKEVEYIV
Method: as §1

[6] = target: T1, His6-tagged mouse CRY1 PHR (photolyase …); assay: GST pull-down
Method: Soluble proteins were purified using GS4B resin (GE Healthcare). GST-tagged proteins were eluted with 10 mM glutathione and peak elution was desalted into 20 mM HEPES pH 7.5, 125 mM NaCl, 5% glycerol and 2 mM TCEP. […] After rotation at 4° C. overnight, reactions were washed 3 times with the above buffer and eluted with 6× SDS. Samples were boiled for ˜5 min. and loaded on an SDS-PAGE gel for visualization by Coomassie stain.

[7] = target: T4, CLOCK PAS-B domain (residues 261-395) site-specifically labeled with FAM at its N-terminus (human, UniProt O15516 261-395, FAM (fluorescein) at the N-terminus, attached with Sortase A from FAM-LPETGG onto the N-terminal glycine); assay: fluorescence polarization
T4 construct: Sortase ligation leaves residues of the FAM-LPETGG peptide in front of the N-terminal glycine; also called labeled CLOCK PAS-B; CLOCK PAS-B probe
T4 sequence: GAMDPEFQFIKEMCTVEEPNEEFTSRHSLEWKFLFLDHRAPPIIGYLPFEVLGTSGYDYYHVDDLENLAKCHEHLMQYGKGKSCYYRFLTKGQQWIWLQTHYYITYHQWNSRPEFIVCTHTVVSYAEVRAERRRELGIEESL

binding result [1]: binds
B1: mouse CLOCK PAS-B (residues 261-395) (other)
chain: QFIKEMCTVEEPNEEFTSRHSLEWKFLFLDHRAPPIIGYLPFEVLGTSGYDYYHVDDLENLAKCHEHLMQYGKGKSCYYRFLTKGQQWIWLQTHYYITYHQWNSRPEFIVCTHTVVSYAEVRAERRRELGIEESL
notes: also called CLOCK PAS-B domain; CLOCK PAS-B WT
binding result [2]: no binding (tested: 10-50 µM, 1:1 molar ratio)
binding result [3]: no binding (tested: 10-50 µM, 1:1 molar ratio)

B2: CLOCK PAS-B H360Y (other)
chain: QFIKEMCTVEEPNEEFTSRHSLEWKFLFLDHRAPPIIGYLPFEVLGTSGYDYYHVDDLENLAKCHEHLMQYGKGKSCYYRFLTKGQQWIWLQTHYYITYYQWNSRPEFIVCTHTVVSYAEVRAERRRELGIEESL
notes: also called CLOCK PAS-B H360Y mutant
binding result [4]: no binding (tested: 10-50 µM, 1:1 molar ratio)

binding result [5]: no binding (tested: incubated 1:1)
B3: CLOCK PAS-B V315R (other)
chain: QFIKEMCTVEEPNEEFTSRHSLEWKFLFLDHRAPPIIGYLPFEVLGTSGYDYYHRDDLENLAKCHEHLMQYGKGKSCYYRFLTKGQQWIWLQTHYYITYHQWNSRPEFIVCTHTVVSYAEVRAERRRELGIEESL
notes: also called CLOCK PAS-B V315R mutant

binding result [6]: no binding
B4: GST-CLOCK PAS-B W362A (other, not shown: a dimerising Fc or GST; small tags and cut ends)
chain: QFIKEMCTVEEPNEEFTSRHSLEWKFLFLDHRAPPIIGYLPFEVLGTSGYDYYHVDDLENLAKCHEHLMQYGKGKSCYYRFLTKGQQWIWLQTHYYITYHQANSRPEFIVCTHTVVSYAEVRAERRRELGIEESL

binding result [7]: binds
B5: CRY1 PHR (residues 1-491) after cleavage of the His6 tag, with residual vector sequence (Example 6) (other)
chain: GAMDPEFMGVNAVHWFRKGLRLHDNPALKECIQGADTIRCVYILDPWFAGSSNVGINRWRFLLQCLEDLDANLRKLNSRLFVIRGQPADVFPRLFKEWNITKLSIEYDSEPFGKERDAAIKKLATEAGVEVIVRISHTLYDLDKIIELNGGQPPLTYKRFQTLVSKMEPLEMPADTITSDVIGKCMTPLSDDHDEKYGVPSLEELGFDTDGLSSAVWPGGETEALTRLERHLERKAWVANFERPRMNANSLLASPTGLSPYLRFGCLSCRLFYFKLTDLYKKVKKNSSPPLSLYGQLLWREFFYTAATNNPRFDKMEGNPICVQIPWDKNPEALAKWAEGRTGFPWIDAIMTQLRQEGWIHHLARHAVACFLTRGDLWISWEEGMKVFEELLLDADWSINAGSWMWLSCSSFFQQFFHCYCPVGFGRRTDPNGDYIRRYLPVLRGFPAKYIYDPWNAPEGIQKVAKCLIGVNYPKPMVNHAEASRLNIERMKQIYQQL
